Columns and labels:
[1] = target: SIINFEKL-specific TCR on CD8+ T-cells of OT-I transgenic mice; assay: flow cytometry, dextramer staining of OT-I activated CD8+ T-cells
[2] = target: OVA peptide SIINFEKL-MHC complex (OVA257-264 presented in the context of MHC class I H-2K^b) on tumor cells (chicken); assay: cell-based or functional assay

percent of cells positive [1]	IL-2 (pg/ml) from B3Z T-cells; B16F10 tumor cells, OVA 0.25 mg/ml [2]	IL-2 (pg/ml) from B3Z T-cells; B16F10 tumor cells, OVA 0.5 mg/ml [2]	IL-2 (pg/ml) from B3Z T-cells; B16F10 tumor cells, OVA 1.0 mg/ml [2]	IL-2 (pg/ml) from B3Z T-cells; B16F10 tumor cells, OVA 2.5 mg/ml [2]	IL-2 (pg/ml) from B3Z T-cells; KP LUN31 tumor cells, OVA 0.125 mg/ml [2]	IL-2 (pg/ml) from B3Z T-cells; KP LUN31 tumor cells, OVA 0.25 mg/ml [2]	IL-2 (pg/ml) from B3Z T-cells; KP LUN31 tumor cells, OVA 0.5 mg/ml [2]	IL-2 (pg/ml) from B3Z T-cells; KP LUN31 tumor cells, OVA 1.0 mg/ml [2]	IL-2 (pg/ml) from B3Z T-cells; KP LUN31 tumor cells, OVA 2.5 mg/ml [2]	IL-2 (pg/ml) from B3Z T-cells; LL2 tumor cells, OVA 2.5 mg/ml [2]	IL-2 (pg/ml) from B3Z T-cells; LL2 tumor cells, OVA 5.0 mg/ml [2]	IL-2 (pg/ml) from B3Z T-cells; LL2 tumor cells, OVA 10 mg/ml [2]	IL-2 (pg/ml) from B3Z T-cells; MC38 tumor cells, OVA 2.5 mg/ml [2]	IL-2 (pg/ml) from B3Z T-cells; MC38 tumor cells, OVA 5.0 mg/ml [2]	IL-2 (pg/ml) from B3Z T-cells; MC38 tumor cells, OVA 10 mg/ml [2]	Substance
100%	–	–	–	–	–	–	–	–	–	–	–	–	–	–	–	H-2 Kb SIINFEKL-APC conjugated dextramer (Immudex) (from UniProt P01901 22-369) (peptide-MHC)
–	22 pg/mL	76 pg/mL	323 pg/mL	589 pg/mL	22 pg/mL	68 pg/mL	247 pg/mL	483 pg/mL	913 pg/mL	11 pg/mL	26 pg/mL	33 pg/mL	54 pg/mL	138 pg/mL	338 pg/mL	T-cell receptor (TCR) of the T-cell hybridoma B3Z86/90.14 (B3Z)

— patent US20190048094A1
